The text below walks through data of US20250043001A1 (Xencor, published 2025).

This assay deals with T1, STEAP1 (UniProt Q9UHE8 1-339, limits assumed).
T1 construct: whole, on cells; also called Six-Transmembrane Epithelial Antigen of the Prostate 1
The experiment in a line: cell binding (MFI) on LOX-IMVI cells expressing STEAP1. From the text:
STEAP1 x CD28 bsAbs were engineered in 2+1 formats (mAb-scFv or Fab₂-scFv-Fc) to investigate the effects of bivalent binding to STEAP1 antigen compared with monovalent binding of a STEAP1 x CD28 bsAb in the 1+1 Fab-scFv format. LOX-IMVI cells (which express both STEAP1 at—8000 antigens/cell as well as an aCD3-scFv in order to provide Signal 1) were mixed with purified T cells at a 1:1 E:T ratio. As depicted in FIG. 36, XENP47235 in the […] format reaches a higher level of binding as measured by the MFI, indicating a higher antigen binding capacity and potentially higher efficacy. […] Each format may be advantageous in different contexts.

B1: XENP47241 (bispecific antibody)
heavy 1: QVQVQESGPGLVKPSQTLSLTCTVSGYSITSDYSWNWIRQPPGKKLEWIGYIGTSGSTVYNPSLKSRVTISRDTSKNQFSLKLSSVTAADTAVYYCARERNYDYELYYYAMDYWGQGTLVTVSSASTKGPSVFPLAPSSKSTSGGTAALGCLVKDYFPEPVTVSWNSGALTSGVHTFPAVLQSSGLYSLSSVVTVPSSSLGTQTYICNVNHKPSDTKVDKKVEPKSCDKTHTCPPCPAPPVAGPSVFLFPPKPKDTLMISRTPEVTCVVVDVKHEDPEVKFNWYVDGVEVHNAKTKPREEEYNSTYRVVSVLTVLHQDWLNGKEYKCKVSNKALPAPIEKTISKAKGQPREPQVYTLPPSREEMTKNQVSLTCDVSGFYPSDIAVEWESDGQPENNYKTTPPVLDSDGSFFLYSKLTVDKSRWEQGDVFSCSVLHEALHSHYTQKSLSLSPGK
heavy 2: not shown
light 1: not shown
light 2: not shown
notes: also called STEAP1 x CD28 bsAb in the 2+1 mAb-scFv format
Consider B1, for which the binding result is on record as “binds”.
